Measured values taken from patent US20110262444A1.

Target: rabbit polyclonal antibodies for Peptide 2 (CRNGDD, SEQ ID NO: 2)
Test: Western blot, inhibition of H6D antibody binding to CRNGDD-BSA by free peptide, 10 µg peptide/µl antiserum

Q: With CRNGDD [CRNGDD (SEQ ID NO: 2) peptide, free] as the binder, how does the percent inhibition read?
A: 81%
